Patent US4254225A, “Novel neutral glucoamylase and method for its production” (priority 1978, dated 1981)

Columns and labels:
[1] = Substrate specificity: reaction rate on various substrates at 1% concentration; assay type: biochemical
Procedure: ^a The enzymatic activities of each glucoamylase were determined with
the substrates present at a 1% concentration; each enzyme' s activity in
relation to dextrin was assigned the value 100, and the activities on the
other substrates are presented as relative
(§1) A 0.5-ml aliquot of a suitably diluted enzyme solution was added to 0.5 ml of a 2% solution of a spray-dried maltodextrin (D.E. about 10) in 0.1 M acetate buffer solution (pH 6.0) and this was incubated at 60° C. for precisely 10 minutes. The enzyme reaction was then stopped by heating the mixture for 5 minutes in a boiling water bath. The amount of dextrose produced was determined by the glucose oxidase method. The amount of enzyme producing 1 micromole of dextrose per minute was defined as 1 unit.

[2] = Relationship between reaction pH and enzymatic activity (optimum pH); assay type: biochemical; conditions: values marked with an asterisk (own)
Procedure: as §1

[3] = assay type: biochemical; conditions: values marked with an asterisk (own)
[4] = Saccharification of about 30% starch hydrolyzate to dextrose; assay type: biochemical; conditions: same substrate concentration as Example 3; pH 4.3 at 60° C.

B1: Aspergillus niger Glucoamylase: conventional glucoamylase from Aspergillus niger, available from Enzyme Development Corporation (protein, UniProt P69328 25-640, looked up)
Glucoamylase: ATLDSWLSNEATVARTAILNNIGADGAWVSGADSGIVVASPSTDNPDYFYTWTRDSGLVLKTLVDLFRNGDTSLLSTIENYISAQAIVQGISNPSGDLSSGAGLGEPKFNVDETAYTGSWGRPQRDGPALRATAMIGFGQWLLDNGYTSTATDIVWPLVRNDLSYVAQYWNQTGYDLWEEVNGSSFFTIAVQHRALVEGSAFATAVGSSCSWCDSQAPEILCYLQSFWTGSFILANFDSSRSGKDANTLLGSIHTFDPEAACDDSTFQPCSPRALANHKEVVDSFRSIYTLNDGLSDSEAVAVGRYPEDTYYNGNPWFLCTLAAAEQLYDALYQWDKQGSLEVTDVSLDFFKALYSDAATGTYSSSSSTYSSIVDAVKTFADGFVSIVETHAASNGSMSEQYDKSDGEQLSARDLTWSYAALLTANNRRNSVVPASWGETSASSVPGTCAATSAIGTYSSVTVTSWPSIVATGGTTTTATPTGSGSVTSTSKTTATASKTSTSTSSTSCTTPTAVAVTFDLTATTTYGENIYLVGSISQLGDWETSDGIALSADKYTSSDPLWYVTVTLPAGESFEYKFIRIESDDSVEWESDPNREYTVPQACGTSTATVTDTWR
- Reaction Rate ([1]; substrate Amylpectin, relative to dextrin = 100): 113
- Reaction Rate ([1]; substrate Dextrin (D.E. 10), relative, activity on dextrin assigned 100): 100
- Reaction Rate ([1]; substrate Glycogen, relative to dextrin = 100): 100
- Reaction Rate ([1]; substrate Maltohexaose, relative to dextrin = 100): 100
- Reaction Rate ([1]; substrate Maltose, relative to dextrin = 100): 26
- Reaction Rate ([1]; substrate Maltotriose, relative to dextrin = 100): 12
- Reaction Rate ([1]; substrate Panose, relative to dextrin = 100): 47
- Reaction Rate ([1]; substrate Pullulan, relative to dextrin = 100): 2
- Reaction Rate ([1]; substrate Soluble Starch, relative to dextrin = 100): 95
- Optimum pH [2]: 4.5
- Optimum Temp. [3]: 70 °C
- dextrose yield [4]: 96.5%
